# Patent US8329186B2, “Treatment of inflammation using BST2 inhibitor” (Isu Abxis Co., Ltd, priority 2004, dated 2012)
# System: U937 cells
# Test: Direct binding of U937 cells to Bst2 decoy-coated plates
# Parameters: species or system human
# Conditions: Bst2 decoy-coated wells vs BSA
# Method: Flat-bottomed 96-well plates were coated with Bst2 decoy with sodium bicarbonate (100 mM, pH 9.5) for 2 hrs at 37° C. The plates were washed with PBS (pH 7.4) and incubated with 1% bovine serum albumin (BSA) at 25° C. After a rinse with PBS (pH 7.4) containing 1 mM CaCl2 and 0.5 mM MgCl2, U937 cells (1×10^6/ml) were added to each dBst2-coated well. After 2 hrs of incubation at 37° C., unbound cells were removed by two gentle washes with RPMI1640 media (Gibco-BRL) and bound cells were fixed with 2% paraformaldehyde for 20 minutes, washed, and stained with 0.5% crystal violet. After 30 minutes at 25° C., the plates were washed with PBS and bound cells were counted.
molecule,measurement,value
"Bst2 decoy: soluble Bst2 protein fragment having the amino acid sequence of SEQ ID NO:1; extracellular region of human Bst2, six-histidine tag (protein) NSEACRDGLRAVMECRNVTHLLQQELTEAQKGFQDVEAQAATCNHTVMALMASLDAEKAQGQKKVEELEGEITTLNHKLQDASAEVERLRRENQVLSVRIADKKYYPSSQDHHHHHH",attachment of U937 cells to coated wells,attached
